Laboratory results from the supplement of paper PMC9732359.
± gives the uncertainty stated by the source.

Assay: protein stability index of a GFP-peptide fusion (yeast GPS) (PSI 1-4); higher = more stable; sorted into four equal gates, so the index is relative within each strain
In short: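 The protein stability index combines read frequencies across sorting gates, each weighted by its gate number and then summed. To obtain those frequencies, a pooled yeast library of GFP fusions to tiled 17-residue yeast protein peptides, on a plasmid also expressing Cherry, was grown to mid-log phase in leucine-free medium. The cells were sorted into four equal gates by GFP/Cherry ratio before plasmid amplification by PCR and Illumina sequencing.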

Sequence | protein stability index (doa10∆) | protein stability index (pdr5∆) | protein stability index (san1∆) | protein stability index (ubr1∆)
LTLYLFQDYLTQQAVNL [IRR1] | 2.15 ± 0.095 | 1.91 ± 0.067 | 2.06 ± 0.15 | 2.17 ± 0.099
STSNALKVLSGDEGYNE [SNF12] | 3.39 ± 0.11 | 3.24 ± 0.11 | 3.04 ± 0.059 | 3.5 ± 0.13
QKMAELEAARSEKQNDE [PRP8] | 1.75 ± 0.11 | 1.76 ± 0.085 | 2.23 ± 0.26 | 1.8 ± 0.09
PDYYMIIKYPVAFDNIN [SNF2] | 2.78 ± 0.14 | 2.08 ± 0.12 | 1.97 ± 0.12 | 2.44 ± 0.15
HKPNEGRTPNISNGTIN [SIR4] | 2.92 ± 0.071 | 2.9 ± 0.046 | 2.99 ± 0.056 | 3.07 ± 0.048
IPYGPDFDNIEFKKIPR [SEC65] | 3.21 ± 0.093 | 3.1 ± 0.11 | 2.87 ± 0.075 | 3.17 ± 0.084
KSLGVKSLGGGAALKDI [FAS2] | 3 ± 0.051 | 2.25 ± 0.049 | 2.41 ± 0.048 | 2.86 ± 0.057
RKVSGPRALQPSQFGML [RET1] | 2.36 ± 0.089 | 1.67 ± 0.059 | 2.46 ± 0.12 | 2.56 ± 0.09
EYYRIQKQLPQKTRVKL [ESC2] | 2.79 ± 0.055 | 2.77 ± 0.05 | 2.86 ± 0.05 | 2.82 ± 0.039
NGTISKTGKKNKVAKKN [SRP14] | 3.51 ± 0.16 | 3.45 ± 0.19 | 3.09 ± 0.13 | 3.17 ± 0.076
APPQTRKFQPPPGFKRK [SMB1] | 3.18 ± 0.088 | 3.19 ± 0.1 | 3.17 ± 0.084 | 3.28 ± 0.063
ATAEKLPNIYPSTRCKL [RPT2] | 2.14 ± 0.096 | 1.66 ± 0.091 | 2.04 ± 0.1 | 2 ± 0.1
ARDAPTKISTLAVKVHG [QCR2] | 1.4 ± 0.11 | 2.09 ± 0.14 | 1.38 ± 0.14 | 1.09 ± 0.045
WKEVLAHNPELERYVKR [RPO31] | 3.6 ± 0.11 | 3.85 ± 0.25 | 3.38 ± 0.1 | 3.45 ± 0.099
QNRPYNHPELQGITRNV [RPC17] | 2.06 ± 0.046 | 2.38 ± 0.078 | 2.03 ± 0.087 | 2.17 ± 0.049
HAQSKREGRHSGYGKRK [RPL19A] | 2.8 ± 0.086 | 2.9 ± 0.08 | 2.85 ± 0.05 | 2.96 ± 0.042
QPVNFNRSWDHAYNITF [RPO31] | 2.13 ± 0.12 | 2.37 ± 0.055 | 2.39 ± 0.12 | 2.45 ± 0.047
RYLAVTLQDIGFYQIKK [YMR129W/POM152] | 2.53 ± 0.046 | 2.65 ± 0.043 | 2.73 ± 0.068 | 2.62 ± 0.043
SSNPNSSLHSPTSDEPV [SRB4] | 3.09 ± 0.13 | 2.99 ± 0.079 | 2.99 ± 0.063 | 3.15 ± 0.058
EIGILDHVDGSSEFVSQ [RRP46] | 1.69 ± 0.067 | 2.01 ± 0.059 | 2.24 ± 0.065 | 2.5 ± 0.064
LFAFNGVARNFHFAIEQ [SIN4] | 3.01 ± 0.14 | 2.8 ± 0.079 | 2.55 ± 0.069 | 3.06 ± 0.064
EVESSDTIDNVKSKIQD [RPS31] | 3.11 ± 0.21 | 2.78 ± 0.17 | 3.12 ± 0.1 | –
LLRSRLATRRVLQEYRL [RPO21] | 2.62 ± 0.067 | 2.07 ± 0.083 | 2.27 ± 0.11 | 1.63 ± 0.072
KLQLGQLYESGNPVNDA [COR1] | 3.03 ± 0.076 | 2.98 ± 0.091 | 3.17 ± 0.065 | 3.01 ± 0.077
SSLVQKGLETIDNGAES [RPC53] | 2.65 ± 0.26 | 3.02 ± 0.21 | – | –
INELVLENFKSYAGKQV [SMC4] | 2.69 ± 0.075 | 2.75 ± 0.057 | 2.39 ± 0.079 | 2.74 ± 0.049
YSVYLIHEIRLNTLNNV [SIR3] | 1.85 ± 0.089 | 1.99 ± 0.067 | 2.25 ± 0.1 | 2.34 ± 0.048

Sequence | protein stability index (doa10∆) | protein stability index (pdr5∆) | protein stability index (san1∆) | protein stability index (ubr1∆)
VIEEDYDDEQNTSAQHV [IRR1] | 3.5 ± 0.097 | 2.95 ± 0.12 | 3.12 ± 0.08 | 3.52 ± 0.19
KNIHISKRSKIDIINKL [YML103C/NUP188] | 1.34 ± 0.17 | – | – | 1.49 ± 0.14
ILQNEHDYWNKIMQSIS [SRB4] | 2.14 ± 0.079 | 2.37 ± 0.062 | 1.92 ± 0.11 | 2.35 ± 0.082
LRLKLFLYEILSSLKSF [SRB8] | 1.53 ± 0.063 | 2.29 ± 0.082 | 1.81 ± 0.082 | 2.11 ± 0.085
SPEGRLFQVEYSLEAIK [PUP2] | 2.37 ± 0.19 | 2.86 ± 0.1 | 2.75 ± 0.12 | 2.62 ± 0.067
STFRLNLSVTSPYNADF [RPO21] | 2.21 ± 0.05 | 2.34 ± 0.054 | 2.6 ± 0.075 | 2.93 ± 0.044
VRSANEDGTFSVLYPDE [RRP43] | 3.13 ± 0.088 | 3.02 ± 0.088 | 3.18 ± 0.06 | 3.28 ± 0.1
LDKIYTRPISSQVLDLA [SMC2] | 1.53 ± 0.079 | 2.01 ± 0.08 | 1.25 ± 0.15 | 1.27 ± 0.054
NEISRNGTMINEVIDKL [PCI8] | 2.59 ± 0.067 | 2.51 ± 0.066 | 2.48 ± 0.072 | 2.78 ± 0.065
RLASEPGIISITSLQDS [YMR129W/POM152] | 2.94 ± 0.1 | 2.34 ± 0.077 | 2.96 ± 0.083 | 1.82 ± 0.051
TGETYQRFVGHKSDVMS [ASC1] | 2.73 ± 0.14 | 3.09 ± 0.069 | 2.6 ± 0.096 | 2.94 ± 0.093
SSTIDAPAFHTSGKVEL [SRB8] | 2.9 ± 0.28 | – | 2.94 ± 0.18 | 2.87 ± 0.082
VDSRNETDHKTNENGET [SRB4] | 3.26 ± 0.16 | 2.75 ± 0.18 | 2.77 ± 0.098 | 3.27 ± 0.19
ISTYISTDELVGSPLTV [POP8] | 1.49 ± 0.13 | 2.6 ± 0.1 | 2.27 ± 0.16 | 2.2 ± 0.081
SAIIENAFRKEELLLKD [GAL11] | – | 1.14 ± 0.16 | – | 1.18 ± 0.22
IIELENINAKMETRINI [YIL149C/MLP2] | 3.06 ± 0.091 | 2.63 ± 0.11 | 2.5 ± 0.069 | 2.62 ± 0.063
MILKLVCQVTKFGLLLQ [ECM29] | 2.12 ± 0.066 | 2.28 ± 0.078 | 2.46 ± 0.072 | 1.61 ± 0.063
NKVQIMIATNVAARGLD [PRP28] | 1.45 ± 0.061 | 1.5 ± 0.078 | 1.43 ± 0.15 | 1.19 ± 0.055
ITDKGTVDGRLYQLFKT [YJL039C/NUP192] | 3.19 ± 0.11 | 3.46 ± 0.097 | 3.3 ± 0.069 | 3.46 ± 0.094
FNKNLGKGPGCGFWQPA [PRP8] | 3.18 ± 0.16 | 3.25 ± 0.15 | 3.39 ± 0.14 | 3.54 ± 0.075
DAKTSYPNEVLKFNHGN [REC8] | 2.78 ± 0.052 | 2.95 ± 0.072 | 3.02 ± 0.058 | 2.95 ± 0.065
PKFDVGALMALHGEGSG [RPS1A] | 2.01 ± 0.17 | 2.26 ± 0.092 | 2.23 ± 0.16 | 1.57 ± 0.089
NSSSMEEVMRIALMGQD [ESC2] | 2.69 ± 0.068 | 2.67 ± 0.075 | 2.19 ± 0.12 | 2.62 ± 0.049
ISSSTQCLRFLKETVIP [POP6] | 1.52 ± 0.074 | 1.87 ± 0.11 | 1.26 ± 0.22 | 2.27 ± 0.073
KIIEDLRQKHEFLEDFD [SMC2] | 2.96 ± 0.097 | 2.54 ± 0.077 | 2.6 ± 0.087 | 2.94 ± 0.17
KAKVDDLVLGKPLADLR [YLR335W/NUP2] | 3.23 ± 0.25 | 3.56 ± 0.21 | 3.39 ± 0.072 | 3.35 ± 0.09
LGYARFILLDRLRQFNL [SMC4] | 2.36 ± 0.061 | 1.8 ± 0.065 | 1.75 ± 0.079 | 1.63 ± 0.061

Sequence | protein stability index (doa10∆) | protein stability index (pdr5∆) | protein stability index (san1∆) | protein stability index (ubr1∆)
VEVDITLSPNVTDSSLL [GRR1] | 2.83 ± 0.074 | 2.43 ± 0.068 | 2.99 ± 0.053 | 2.82 ± 0.046
LPSEDSRAQILQIHSRK [RPT5] | 2.21 ± 0.072 | 2.39 ± 0.049 | 2.55 ± 0.064 | 2.89 ± 0.04
HGVLQGTSQNYGTATAD [MED1] | 3.2 ± 0.091 | 3.13 ± 0.076 | 2.96 ± 0.078 | 3.14 ± 0.052
IKKPTSAVVSSNASRRK [RPN4] | 2.47 ± 0.17 | 2.3 ± 0.17 | 2.36 ± 0.076 | 2.89 ± 0.27
HLVWMKGTNDEGTSISV [YCS4] | 1.84 ± 0.11 | 2.23 ± 0.086 | 1.9 ± 0.18 | 2.2 ± 0.17
NDSFKGLITNKMWFDVQ [PRP8] | 2.98 ± 0.16 | 2.99 ± 0.085 | 3.03 ± 0.11 | 3.08 ± 0.087
HDNHGNKLGNKRLTEDE [CDC53] | 2.51 ± 0.091 | 2.84 ± 0.069 | 2.37 ± 0.052 | 3.17 ± 0.06
ELNDNPAWFNNPRKRAI [YMR153W/NUP53] | 3.09 ± 0.089 | 2.96 ± 0.066 | 2.48 ± 0.037 | 2.98 ± 0.051
GRRWNELRRFESSINTH [SKI6] | – | 2.66 ± 0.12 | 2.01 ± 0.13 | 2.41 ± 0.13
ITHQLNNKFANKIIPNV [RPC25] | 2.72 ± 0.069 | 3.03 ± 0.08 | 2.93 ± 0.053 | 3.01 ± 0.082
KDLVKNNVSFNAKDIQI [FAS1] | 2.46 ± 0.041 | 2.62 ± 0.061 | 2.69 ± 0.07 | 2.71 ± 0.043
STGLKSASDALKGRVVE [RPS1A] | 3.29 ± 0.078 | 3.31 ± 0.071 | 3.48 ± 0.044 | 3.37 ± 0.084
VGRLWDQTFPINCNKET [ECM29] | 3.03 ± 0.14 | 2.87 ± 0.12 | 3.07 ± 0.11 | 3.09 ± 0.1
PLQGIFHNAVFNSFRRF [QCR8] | 2.67 ± 0.064 | 2.47 ± 0.048 | 2.38 ± 0.054 | 1.96 ± 0.031
EYFGGESPVDVQSQVDS [FAS1] | 3.01 ± 0.14 | 3.38 ± 0.1 | 3.19 ± 0.11 | 3.07 ± 0.092
RCFENLQNKSFKSVLPI [UBP6] | 2.35 ± 0.076 | 1.98 ± 0.09 | 2.05 ± 0.12 | 2.45 ± 0.057
VLSTFTAEFGKILAGLH [RPN10] | 3.11 ± 0.14 | 3.44 ± 0.15 | 3.1 ± 0.14 | 3.05 ± 0.11
LKLENLHVVSKSSIEKD [SIN4] | 3.13 ± 0.094 | 2.74 ± 0.11 | 3.14 ± 0.1 | 3.12 ± 0.068
KTNEESAKMILLSDPTI [PRP8] | 2.77 ± 0.12 | 2.95 ± 0.16 | 2.94 ± 0.1 | 2.92 ± 0.042
MLLEEQLEYKRGEIREI [MED7] | – | 2.92 ± 0.28 | 2.69 ± 0.29 | –
NVLNRIQELEDQRDELL [ITC1] | 3.39 ± 0.12 | 3.15 ± 0.085 | 3.5 ± 0.077 | 3.56 ± 0.12
ARYNWICDPVHKHREAR [RPL15A] | 3.51 ± 0.12 | 2.81 ± 0.13 | 2.98 ± 0.12 | 3.22 ± 0.096
QLYFKKKVNYKVTSYDI [ISW2] | 2.63 ± 0.058 | 2.56 ± 0.052 | 2.7 ± 0.07 | 2.72 ± 0.047
REQSSNDSETHTEDEST [BRN1] | – | 3.43 ± 0.27 | – | –
AETLCFTVNVLYPDSSS [RPN3] | 2.56 ± 0.055 | 2.69 ± 0.05 | 2.97 ± 0.052 | 2.87 ± 0.041
VPTSIQTKRWPTMYTRL [SIN4] | 2.18 ± 0.048 | 2.57 ± 0.05 | 2.5 ± 0.047 | 2.62 ± 0.039
